Positions of bridges follow the written chain, without caps; N, C: chain ends.

For orientation: Kd means the constant that tells how readily two partners part at equilibrium.

Assay [1] addresses T1, N-terminally biotinylated PADI4 (bio-His-PADI4), recombinant human peptidylarginine deiminase IV (human, UniProt Q9UM07 1-663, biotin on the N-terminal Avi-Tag (BirA co-expression)). In words: SPR. A general note: SPR reads the build-up and loss of mass on a sensor chip optically.
A further assay has as its target PADI4 variant E167A (human, UniProt Q9UM07 1-663, E167A). In words: SPR.
The next assay addresses PADI4 variant D168A (human, UniProt Q9UM07 1-663, D168A). Put plainly: SPR.
Another assay concerns the target PADI4_D165A (human, UniProt Q9UM07 1-663, D165A). In words: SPR.
Assay [2] deals with T1, N-terminally biotinylated PADI4 …. Put plainly: SPR. This is another data set of the same source.
The target of another assay is PADI4 variant R394A (human, UniProt Q9UM07 1-663, R394 with an alanine). In words: SPR.
In another assay the target is PADI4 variant C166F (human, UniProt Q9UM07 1-663, C166 with bulky phenylalanine). Put plainly: SPR.
For assay [3], the target named is T1, N-terminally biotinylated PADI4 …. In words: SPR; 10 mM CaCl2.
The target is the same in assay [4]. In words: SPR; 10 mM CaCl2 + Cl-amidine.
Assay [5] has the same target. Put plainly: SPR; 0 mM CaCl2.
The target of a further assay is PADI4_N373A. Put plainly: SPR.

T1 sequence (Q9UM07 whole entry): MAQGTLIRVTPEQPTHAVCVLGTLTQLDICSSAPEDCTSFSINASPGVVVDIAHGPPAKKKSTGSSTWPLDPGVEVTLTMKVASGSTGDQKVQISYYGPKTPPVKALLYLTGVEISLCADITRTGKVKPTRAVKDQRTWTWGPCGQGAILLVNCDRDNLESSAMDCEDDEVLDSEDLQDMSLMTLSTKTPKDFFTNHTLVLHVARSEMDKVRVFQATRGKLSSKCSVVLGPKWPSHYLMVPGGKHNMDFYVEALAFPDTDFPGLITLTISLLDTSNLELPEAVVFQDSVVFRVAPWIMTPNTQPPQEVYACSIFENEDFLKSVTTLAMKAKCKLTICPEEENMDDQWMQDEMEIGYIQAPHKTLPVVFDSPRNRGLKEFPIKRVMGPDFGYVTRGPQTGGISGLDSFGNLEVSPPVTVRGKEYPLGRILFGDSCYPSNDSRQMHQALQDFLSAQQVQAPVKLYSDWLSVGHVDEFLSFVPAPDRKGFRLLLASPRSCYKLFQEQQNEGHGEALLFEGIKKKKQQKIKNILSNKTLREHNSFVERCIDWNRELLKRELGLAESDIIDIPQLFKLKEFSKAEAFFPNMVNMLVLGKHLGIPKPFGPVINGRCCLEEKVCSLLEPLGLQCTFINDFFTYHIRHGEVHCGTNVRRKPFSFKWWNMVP
PADI4 variant C166F, sequence (Q9UM07 whole entry C166F): as the sequence (Q9UM07 whole entry) above, with C166F counted along it
PADI4 variant R394A, sequence (Q9UM07 whole entry R394A): as the sequence (Q9UM07 whole entry) above, with R394A counted along it
PADI4 variant E167A, sequence (Q9UM07 whole entry E167A): as the sequence (Q9UM07 whole entry) above, with E167A counted along it
PADI4 variant D168A, sequence (Q9UM07 whole entry D168A): as the sequence (Q9UM07 whole entry) above, with D168A counted along it
PADI4_D165A, sequence (Q9UM07 whole entry D165A): as the sequence (Q9UM07 whole entry) above, with D165A counted along it

Regarding {CH2CO}-YESCKYRQVLQL-NH2 (thioether N-4) [PADI4_11 variant with lysine at R5], the dissociation constant (Kd) in assay [1] is 1400 nM.

Consider {CH2CO}-YESCRYKQVLQL-NH2 (thioether N-4) [PADI4_11 variant with lysine at R7], for which the dissociation constant Kd in assay [1] was 700 nM.

B1: PADI4_11 (peptide)
chain: {CH2CO}-YESCRYRQVLQL-NH2
modifications: thioether N-4
SMILES: CC(C)C[C@H](NC(=O)[C@H](CCC(N)=O)NC(=O)[C@H](CC(C)C)NC(=O)[C@@H](NC(=O)[C@H](CCC(N)=O)NC(=O)[C@H](CCCNC(=N)N)NC(=O)[C@H](Cc1ccc(O)cc1)NC(=O)[C@H](CCCNC(=N)N)NC(=O)[C@@H]1CSCC(=O)N[C@@H](Cc2ccc(O)cc2)C(=O)N[C@@H](CCC(=O)O)C(=O)N[C@@H](CO)C(=O)N1)C(C)C)C(N)=O
On to B1, for which the Kd in [1] was 500 nM; with PADI4 variant E167A it was 700 nM; in the assay with PADI4 variant D168A, 4000 nM; in the assay with PADI4_D165A it was 3000 nM; in [2], 457 nM; with PADI4 variant R394A it was greater than 10000 nM. Besides, the equilibrium dissociation constant (Kd) in the assay with PADI4 variant C166F was greater than 10000 nM; in assay [3], 457 nM; in [4] it was 382 nM; in [5] it was greater than 5000 nM; with PADI4_N373A it was greater than 10000 nM.

The values above are taken from doi:10.1101/2023.12.12.571217 (2023).
